For one molecule, EC50 (read off the curve) results are on record in patent publication US20140088019A1.

Bridges are numbered along the chain shown (N, C = ends). Where no end group is shown, it is not given here.

The target of the assay is recombinant human angiopoietin-2 (human) (UniProt O15123). The assay can be described thus: direct ELISA, rhAng2 coated on microplate wells, detection by HRP-anti-His tag antibody, OD450.
UniProt O15123, sequence (O15123 19-496 limits assumed): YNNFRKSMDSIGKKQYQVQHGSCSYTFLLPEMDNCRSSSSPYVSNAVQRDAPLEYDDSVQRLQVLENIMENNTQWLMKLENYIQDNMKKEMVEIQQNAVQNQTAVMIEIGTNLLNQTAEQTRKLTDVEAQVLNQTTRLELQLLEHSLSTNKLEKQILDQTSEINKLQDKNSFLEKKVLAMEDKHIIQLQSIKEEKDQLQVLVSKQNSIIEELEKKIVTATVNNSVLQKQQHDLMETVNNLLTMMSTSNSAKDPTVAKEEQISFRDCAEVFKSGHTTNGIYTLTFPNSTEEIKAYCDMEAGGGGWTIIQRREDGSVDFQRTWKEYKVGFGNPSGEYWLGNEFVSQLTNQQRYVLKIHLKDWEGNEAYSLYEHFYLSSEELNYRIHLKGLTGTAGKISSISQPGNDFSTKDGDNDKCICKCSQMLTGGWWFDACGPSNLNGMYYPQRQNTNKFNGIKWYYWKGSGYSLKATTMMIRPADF

B1: Construct 12: ELP-MRD fusion protein with a constrained rhAng2-targeting peptide (ANGd) sandwiched between ELP repeat modules (designed binder, not shown: small tags and cut ends)
chain: LWDDCYSFPNPPHCYNSP
modifications: disulfide 5-14 (inferred); not fully specified (N-terminus, C-terminus); also: peptide sandwiched between ELP repeat modules, ELP composition not given here
For B1, the EC50 (read off the curve) was 8 nM.

Broadly, the EC50 (read off the curve) is the concentration giving half of the maximal effect.
